For one assay, the target named is T1, hAgr2 (human, UniProt O95994).
T1 construct: panel antigen of the specificity ELISA
T1 sequence (antigen, looked up): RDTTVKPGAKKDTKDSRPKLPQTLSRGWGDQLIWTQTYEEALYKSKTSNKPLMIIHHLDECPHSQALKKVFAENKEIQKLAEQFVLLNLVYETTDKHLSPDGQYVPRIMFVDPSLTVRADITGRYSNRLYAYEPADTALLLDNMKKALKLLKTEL
In words: specificity ELISA on coated antigen (88 ng per well), antibody at 2 µg/mL, ABS650. The procedure: (§1) For specificity ELISAs on purified human and mouse IgGs, a 384-well plate was coated with a panel of purified human or mouse antigens at 88 ng per well and incubated overnight at 4° C. The plate was blocked and washed as described above, then 22 μL of purified mouse or human anti-PCSK9 antibody diluted to 2 μg/mL in PBS was added to each well. The plate was incubated for 1 hr at 37° C. then washed with PBST. Anti-mouse Fc antibody (Jackson ImmunoResearch Labs #115-035-071) or anti-human kappa antibody (Sigma #A7164) conjugated to HRP was diluted 1:5000 in PBS (25 μL) and added to each well. The plate was incubated for 1 hr at room temperature, then washed and developed as described above.
(§2) In order to test whether the antigen specificity of the parental mouse antibody LFU720 was retained in the final Humaneered™ IgGs, LGT209, LGT210 and LGT211, binding of the antibodies to a panel of human and mouse antigens (as well as human PCSK9) was tested in an ELISA assay.

The target in another assay is T2, hNotch-3 NRR (human, UniProt Q9UM47).
T2 construct: panel antigen of the specificity ELISA
T2 sequence (antigen, looked up): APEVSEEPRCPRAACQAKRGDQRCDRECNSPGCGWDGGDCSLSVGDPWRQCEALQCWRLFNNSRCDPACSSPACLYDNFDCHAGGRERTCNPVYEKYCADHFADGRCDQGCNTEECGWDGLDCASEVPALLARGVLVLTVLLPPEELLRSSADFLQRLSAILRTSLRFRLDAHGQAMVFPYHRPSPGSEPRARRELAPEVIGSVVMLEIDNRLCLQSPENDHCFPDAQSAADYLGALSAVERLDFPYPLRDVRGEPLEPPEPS
The description is as above. On the procedure: as §1, §2

A further assay addresses T3, hTrkB (human, UniProt Q16620).
T3 construct: panel antigen of the specificity ELISA
Described as above. On the procedure:
as §1, §2

The target in another assay is T4, hRspo-2 (human, UniProt Q6UXX9).
T4 construct: panel antigen of the specificity ELISA
The assay is described as above. On the procedure: as §1, §2

In the next assay the target is T5, hβ-Klotho (human, UniProt Q86Z14).
T5 construct: panel antigen of the specificity ELISA
T5 sequence (antigen, looked up): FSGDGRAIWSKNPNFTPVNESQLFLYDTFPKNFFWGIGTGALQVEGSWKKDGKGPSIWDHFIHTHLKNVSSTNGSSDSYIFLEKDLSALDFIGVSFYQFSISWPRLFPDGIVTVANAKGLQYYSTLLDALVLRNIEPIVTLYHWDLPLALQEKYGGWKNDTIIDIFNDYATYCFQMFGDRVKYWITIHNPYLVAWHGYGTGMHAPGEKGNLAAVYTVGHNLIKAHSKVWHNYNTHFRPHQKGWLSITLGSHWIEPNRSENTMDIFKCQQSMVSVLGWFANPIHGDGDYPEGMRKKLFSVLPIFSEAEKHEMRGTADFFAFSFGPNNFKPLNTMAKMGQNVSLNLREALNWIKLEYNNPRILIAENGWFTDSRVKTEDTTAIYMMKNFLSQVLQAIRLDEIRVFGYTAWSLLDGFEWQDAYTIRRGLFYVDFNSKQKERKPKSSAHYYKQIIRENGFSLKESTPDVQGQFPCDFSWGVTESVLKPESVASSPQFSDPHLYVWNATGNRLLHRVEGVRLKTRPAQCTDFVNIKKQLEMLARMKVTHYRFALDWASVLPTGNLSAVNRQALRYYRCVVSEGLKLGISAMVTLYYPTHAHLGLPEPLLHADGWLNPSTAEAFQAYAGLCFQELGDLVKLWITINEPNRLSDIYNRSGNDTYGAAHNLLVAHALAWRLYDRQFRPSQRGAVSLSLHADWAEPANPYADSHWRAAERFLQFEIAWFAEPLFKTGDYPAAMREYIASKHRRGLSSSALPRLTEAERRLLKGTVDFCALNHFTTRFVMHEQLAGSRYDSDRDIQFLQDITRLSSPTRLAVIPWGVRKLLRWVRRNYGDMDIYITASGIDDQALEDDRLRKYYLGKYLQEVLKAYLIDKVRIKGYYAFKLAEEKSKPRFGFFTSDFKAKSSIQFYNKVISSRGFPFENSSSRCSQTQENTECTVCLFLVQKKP
Described as above. On the procedure: as §1, §2

The target in a further assay is T6, hDDR1 (human, UniProt Q08345).
T6 construct: panel antigen of the specificity ELISA
Described as above. On the procedure:
as §1, §2

The target of another assay is T7, hIL-12RB1 (human, UniProt P42701).
T7 construct: panel antigen of the specificity ELISA
Described as above. The procedure: as §1, §2

A further assay concerns the target T8, hFGFR4 (human, UniProt P22455).
T8 construct: panel antigen of the specificity ELISA
T8 sequence (antigen, looked up): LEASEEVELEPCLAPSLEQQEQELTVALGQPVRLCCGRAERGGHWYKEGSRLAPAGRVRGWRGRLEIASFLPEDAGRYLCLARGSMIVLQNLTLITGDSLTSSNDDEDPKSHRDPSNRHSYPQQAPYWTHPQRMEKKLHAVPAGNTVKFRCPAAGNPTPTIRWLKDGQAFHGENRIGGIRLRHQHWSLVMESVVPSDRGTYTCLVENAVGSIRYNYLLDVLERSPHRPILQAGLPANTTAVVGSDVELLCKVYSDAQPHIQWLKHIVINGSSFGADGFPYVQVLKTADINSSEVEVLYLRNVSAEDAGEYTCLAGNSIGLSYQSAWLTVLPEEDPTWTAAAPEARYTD
The description is as above. The procedure: as §1, §2

Another assay deals with T9, hGITR (human, UniProt Q9Y5U5).
T9 construct: panel antigen of the specificity ELISA
T9 sequence (antigen, looked up): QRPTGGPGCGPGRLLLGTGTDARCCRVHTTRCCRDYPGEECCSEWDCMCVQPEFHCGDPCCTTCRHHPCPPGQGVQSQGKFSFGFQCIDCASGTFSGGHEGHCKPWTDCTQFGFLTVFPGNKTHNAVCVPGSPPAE
The description is as above. On the procedure: as §1, §2

Assay [1] has as its target T10, mouse Pcsk9 with C-terminal his6 tag (mouse, UniProt Q80W65 35-694, limits assumed).
T10 construct: also called murine PCSK9
Put plainly: not told in the legend.

In assay [2] the target is T11, recombinant human Pcsk9 (aa 31-692) with C-terminal his6 tag (human, UniProt Q8NBP7 31-692).
T11 construct: In the TR-FRET assay it carried a fluorophore (hPcsk9-AF); also called hPCSK9; hPcsk9
In words: Solution Equilibrium Titration (SET), MSD read-out. On the procedure: The binding kinetics of IgGs and Fab fragments were analyzed using a Solution Equilibrium Titration (“SET”) assay. Briefly, serial dilutions of hPCSK9 were added to 60 pM IgG or Fab and incubated overnight. A 96-well Standard Bind microtiter plate (Meso Scale Discovery) was coated with 1 μg/ml hPCSK9 and incubated overnight, washed with PBS/0.05% (w/v) Tween 20, blocked with PBS/5% (w/v) BSA, and washed again. The antibody-antigen preparation was added to the PCSK9-coated Standard Bind plate and incubated for 30 min at room temperature. After three additional washing steps, Sulfo-Tag-labeled goat-anti-human-detection antibody (R32AJ-5, Meso Scale Discovery) was added and incubated one hour at room temperature. After washing the plate three times, Read Buffer (Meso Scale Discovery) was added and electrochemiluminescence (ECL) signals were measured by a Sector Imager 6000 (Meso Scale Discovery). ECL data were processed with the excel add-in XLfit 4.3.2 (ID Business Solutions) using the fitting model applicable for antibodies described in Piehler, et al., (1997) J Immunol Methods 201:189-206.

The target of assay [3] is T11, recombinant human Pcsk9 (aa 31-692) …. Put plainly: ForteBio Octet, purified Fab. For orientation: BLI is a label-free optical method that tracks binding on a fibre tip over time.

Numbering of substitutions follows the chain as printed.

T11 sequence (Q8NBP7 other isoform, or with tags, fused parts or gaps limits assumed, form in doubt): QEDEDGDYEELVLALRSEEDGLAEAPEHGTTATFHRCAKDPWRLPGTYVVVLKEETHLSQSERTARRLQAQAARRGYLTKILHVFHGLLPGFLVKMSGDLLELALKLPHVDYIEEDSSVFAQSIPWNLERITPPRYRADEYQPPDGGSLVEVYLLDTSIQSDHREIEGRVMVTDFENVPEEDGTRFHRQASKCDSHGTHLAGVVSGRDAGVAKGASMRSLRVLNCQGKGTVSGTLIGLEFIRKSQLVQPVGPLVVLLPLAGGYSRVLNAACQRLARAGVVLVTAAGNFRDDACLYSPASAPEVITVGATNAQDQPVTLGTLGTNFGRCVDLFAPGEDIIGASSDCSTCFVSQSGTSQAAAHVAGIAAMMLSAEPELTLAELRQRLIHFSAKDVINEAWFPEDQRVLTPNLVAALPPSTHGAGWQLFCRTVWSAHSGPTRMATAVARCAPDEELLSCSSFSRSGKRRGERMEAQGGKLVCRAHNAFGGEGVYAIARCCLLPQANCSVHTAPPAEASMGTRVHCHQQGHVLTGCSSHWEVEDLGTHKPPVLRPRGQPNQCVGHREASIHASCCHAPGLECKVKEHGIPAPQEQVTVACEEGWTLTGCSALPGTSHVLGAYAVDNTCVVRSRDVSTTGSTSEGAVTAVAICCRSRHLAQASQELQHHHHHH
T4 sequence (Q6UXX9 22-243 limits assumed): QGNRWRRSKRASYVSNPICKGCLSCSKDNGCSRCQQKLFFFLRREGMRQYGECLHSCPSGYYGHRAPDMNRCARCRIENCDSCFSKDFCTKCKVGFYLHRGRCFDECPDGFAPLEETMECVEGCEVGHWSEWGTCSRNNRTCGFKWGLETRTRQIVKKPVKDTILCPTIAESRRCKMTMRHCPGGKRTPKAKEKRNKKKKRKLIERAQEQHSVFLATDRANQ
T6 sequence (Q08345 21-416 limits assumed): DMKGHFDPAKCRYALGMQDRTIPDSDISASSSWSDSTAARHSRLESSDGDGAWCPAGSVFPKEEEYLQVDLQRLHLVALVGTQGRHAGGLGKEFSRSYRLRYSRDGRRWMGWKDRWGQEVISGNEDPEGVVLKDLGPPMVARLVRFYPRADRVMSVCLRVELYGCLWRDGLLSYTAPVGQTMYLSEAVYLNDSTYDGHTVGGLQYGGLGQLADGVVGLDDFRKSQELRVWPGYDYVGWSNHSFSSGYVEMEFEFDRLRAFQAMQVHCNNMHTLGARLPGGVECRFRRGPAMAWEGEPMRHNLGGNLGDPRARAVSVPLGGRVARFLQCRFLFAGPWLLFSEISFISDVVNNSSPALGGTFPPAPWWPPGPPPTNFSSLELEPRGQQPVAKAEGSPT
T3 sequence (Q16620 32-430 limits assumed): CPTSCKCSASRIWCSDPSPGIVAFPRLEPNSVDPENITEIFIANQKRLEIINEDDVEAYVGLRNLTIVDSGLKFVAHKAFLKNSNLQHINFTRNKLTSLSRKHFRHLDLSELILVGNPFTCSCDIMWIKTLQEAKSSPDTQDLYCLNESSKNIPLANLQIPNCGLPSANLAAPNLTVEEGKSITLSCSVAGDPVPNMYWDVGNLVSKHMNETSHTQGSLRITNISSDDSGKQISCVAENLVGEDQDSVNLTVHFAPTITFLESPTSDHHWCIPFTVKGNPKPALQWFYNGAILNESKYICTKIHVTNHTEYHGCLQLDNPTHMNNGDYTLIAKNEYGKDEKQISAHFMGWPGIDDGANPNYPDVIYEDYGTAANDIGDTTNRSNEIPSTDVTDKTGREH
T10 sequence (Q80W65 other isoform, or with tags, fused parts or gaps limits assumed): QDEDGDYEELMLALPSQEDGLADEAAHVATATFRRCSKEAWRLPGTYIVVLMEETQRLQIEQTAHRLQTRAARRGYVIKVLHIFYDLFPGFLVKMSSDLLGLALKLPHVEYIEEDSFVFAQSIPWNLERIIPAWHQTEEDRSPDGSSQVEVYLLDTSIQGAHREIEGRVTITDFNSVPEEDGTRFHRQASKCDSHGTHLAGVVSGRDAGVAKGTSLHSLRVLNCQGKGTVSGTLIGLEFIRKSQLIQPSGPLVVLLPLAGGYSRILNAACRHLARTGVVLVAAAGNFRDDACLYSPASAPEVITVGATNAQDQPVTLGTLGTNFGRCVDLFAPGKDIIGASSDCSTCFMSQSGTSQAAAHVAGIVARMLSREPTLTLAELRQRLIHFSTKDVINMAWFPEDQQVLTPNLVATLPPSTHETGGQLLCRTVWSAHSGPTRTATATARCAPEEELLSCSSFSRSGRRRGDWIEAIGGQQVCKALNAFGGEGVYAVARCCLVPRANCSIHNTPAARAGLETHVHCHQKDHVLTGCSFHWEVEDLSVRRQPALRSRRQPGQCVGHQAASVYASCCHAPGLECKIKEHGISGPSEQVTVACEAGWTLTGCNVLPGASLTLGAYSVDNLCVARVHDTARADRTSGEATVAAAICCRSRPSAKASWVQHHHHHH

B1: NVP-LGT209 (antibody, human IgG1)
heavy: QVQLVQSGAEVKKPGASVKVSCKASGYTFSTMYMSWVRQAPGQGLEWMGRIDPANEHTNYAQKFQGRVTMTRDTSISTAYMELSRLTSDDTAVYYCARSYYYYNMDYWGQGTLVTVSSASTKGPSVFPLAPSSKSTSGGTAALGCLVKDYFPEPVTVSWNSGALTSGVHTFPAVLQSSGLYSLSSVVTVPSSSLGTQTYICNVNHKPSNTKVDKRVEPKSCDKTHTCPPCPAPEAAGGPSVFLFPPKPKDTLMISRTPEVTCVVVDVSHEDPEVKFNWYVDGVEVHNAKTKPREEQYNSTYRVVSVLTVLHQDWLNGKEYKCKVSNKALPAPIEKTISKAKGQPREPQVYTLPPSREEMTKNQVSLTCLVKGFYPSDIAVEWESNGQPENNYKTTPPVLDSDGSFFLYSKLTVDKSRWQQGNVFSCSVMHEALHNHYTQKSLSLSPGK
light: QIVLTQSPATLSVSPGERATLSCRASQSVSYMHWYQQKPGQAPRLLIYGVFRRATGIPDRFSGSGSGTDFTLTIGRLEPEDFAVYYCLQWSSDPPTFGQGTKLEIKRTVAAPSVFIFPPSDEQLKSGTASVVCLLNNFYPREAKVQWKVDNALQSGNSQESVTEQDSKDSTYSLSSTLTLSKADYEKHKVYACEVTHQGLSSPVTKSFNRGEC
notes: Silent human IgG1 kappa made in 293 Freestyle cells; also called pJG04 (Vh) + pJG10 (Vk)
In general, Kd refers to a measure of binding affinity in units of concentration. B1: the binding result with hAgr2, in the assay with hNotch-3 NRR, with hTrkB, with hRspo-2, in the assay with hβ-Klotho and with hDDR1 was “no binding (tested: 2 µg/mL)” throughout. The binding result with hIL-12RB1 is “no binding (tested: 2 µg/mL)”; in the assay with hFGFR4 it was “no binding (tested: 2 µg/mL)”; with hGITR it was “no binding (tested: 2 µg/mL)”; in assay [1], “no binding”. Moreover, the Kd in assay [2] worked out at 0.19 nM.

B2: NVP-LGT210 (antibody, human IgG1)
heavy: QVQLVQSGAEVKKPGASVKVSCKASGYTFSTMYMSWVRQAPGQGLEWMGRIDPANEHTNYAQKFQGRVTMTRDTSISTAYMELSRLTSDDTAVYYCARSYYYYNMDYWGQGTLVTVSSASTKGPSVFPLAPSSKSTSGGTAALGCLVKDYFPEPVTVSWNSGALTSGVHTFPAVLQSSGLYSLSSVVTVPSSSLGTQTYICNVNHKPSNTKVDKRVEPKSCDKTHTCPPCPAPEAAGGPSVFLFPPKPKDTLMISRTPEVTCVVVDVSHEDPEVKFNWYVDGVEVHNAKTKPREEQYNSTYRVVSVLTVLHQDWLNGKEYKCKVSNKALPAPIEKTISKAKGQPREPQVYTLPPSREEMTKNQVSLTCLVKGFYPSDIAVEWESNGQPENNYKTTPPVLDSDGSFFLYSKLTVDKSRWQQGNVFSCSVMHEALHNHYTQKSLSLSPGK
light: B1 light with Q1E, L4M
notes: Silent human IgG1 kappa; also called pJG04 (Vh) + pJG01 (Vk)
In the case of B2, the binding result in the assay with hAgr2, with hNotch-3 NRR, in the assay with hTrkB, with hRspo-2, with hβ-Klotho and in the assay with hDDR1 was “no binding (tested: 2 µg/mL)” in each case. Moreover, the binding result with hIL-12RB1 is recorded as “no binding (tested: 2 µg/mL)”; in the assay with hFGFR4, “no binding (tested: 2 µg/mL)”; with hGITR it was “no binding (tested: 2 µg/mL)”; in [1], “no binding”. Moreover, in [2], the equilibrium dissociation constant (Kd) is 0.15 nM.

B3: CDRH1-variant Fab SR079 (Fab, V domains shown)
VH: QVQLVQSGAEVKKPGASVKVSCKASGYTFSTMYMSWVRQAPGQGLEWMGRIDPANGHTNYAQKFQGRVTMTRDTSISTAYMELSRLTSDDTAVYYCARSYYYYAMDYWGQGTLVTVSS
VL: EIVMTQSPATLSVSPGERATLSCRASQSVSSSHVAWYQQKPGQAPRLLIYGVFRRATGIPDRFSGSGSGTDFTLTIGRLEPEDFAVYYCLQWSSDPPTFGQGTKLEIK
notes: also called SR079 (humaneered)
With B3, the Kd in [3] was 54.2 nM.

The record behind these values is US20110142849A1 (IRM, published 2011).
